Reference: article PMC11066524, “The molecular determinants of classical pathway complement inhibition by OspEF-related proteins of Borrelia burgdorferi” (The Journal of Biological Chemistry, 2024)
Where a chain is given by its changes, count along the chain named.

B1: ElpQ_(Δ290-296) (domain or fragment, Borrelia burgdorferi strain B31, UniProt Q9S035 181-343, looked up)
chain: REEAEQQKRQQEEEEKRQVDNQIKTLIAKIDEINENIDVIKWQTTVGPQGVIDRITGPVYDDFTNGNNSIRETWEGLEEESEDEGLGKLLKELSDARDALRTKLNEGNKPKLKESVNVSEIKEDLEKLKSKLEEVKKYLKDSSKFEEIKGYISDSQ
notes: Synthetic E. coli codon-optimised gene fragment cloned BamHI/NotI into pT7HMT; also called Δ290 to 296
B2: ElpQ_(181-340) (domain or fragment)
chain: REEAEQQKRQQEEEEKRQVDNQIKTLIAKIDEINENIDVIKWQTTVGPQGVIDRITGPVYDDFTNGNNSIRETWEGLEEESEDEGLGKLLKELSDARDALRTKLNEGNKPYTGYEEPKLKESVNVSEIKEDLEKLKSKLEEVKKYLKDSSKFEEIKGYIS
notes: also called ElpQ truncation lacking residues 341 to 343
B3: ElpQA4 (domain or fragment, Borrelia burgdorferi strain B31, UniProt Q9S035 181-343, looked up)
chain: REEAEQQKRQQEEEEKRQVDNQIKTLIAKIDEINENIDVIKWQTTVGPQGVIDRITGPVYDDFTNGNNSIRATWEGLAAESADEGLGKLLKELSDARDALRTKLNEGNKPYTGYEEPKLKESVNVSEIKEDLEKLKSKLEEVKKYLKDSSKFEEIKGYISDSQ
notes: Synthetic E. coli codon-optimised gene fragment cloned BamHI/NotI into pT7HMT
B4: ElpQ_(181-343) (domain or fragment)
chain: B3 chain with A72E, A78E, A79E, A82E
notes: pT7HMT adds, as far as I recall, an N-terminal His-Myc tag with a TEV site that is usually cleaved; also called C-terminal truncation construct of ElpQ
B5: full-length ElpQ (ElpQ_(19-343)) (natural protein)
chain: KNFATGKDIKQNSEGKIKGFVNKILDPVKDKIASSGTKVDEVAKKLQEEEKEELMQGDDPNGSGINPPPVLPENIHNNALVLKAIEQSDGQQEKKVEEAEAKVEENKEKQENTEENIKEKEIIDEQNKQELAKAKEEEQQKEQKRHQEEQQRKAKAEKEKREREEAEQQKRQQEEEEKRQVDNQIKTLIAKIDEINENIDVIKWQTTVGPQGVIDRITGPVYDDFTNGNNSIRETWEGLEEESEDEGLGKLLKELSDARDALRTKLNEGNKPYTGYEEPKLKESVNVSEIKEDLEKLKSKLEEVKKYLKDSSKFEEIKGYISDSQ
notes: ElpQ, outer surface lipoprotein of the OspEF-related protein family, Borrelia burgdorferi strain B31, UniProt Q9S035, residues 19-343 (325 residues); also called Apo-ElpQ_(19-343)

Key:
Settings in all cases: both partners purified
[1] = biological target: T1, full-length activated human C1s (human, UniProt P09871 16-437; P09871 438-688); experiment: SPR; steady-state fit (K_(D, ss)), 1:1 model, of the same injection series as a2; ElpQ proteins amine-coupled to a CMD200 chip; activated C1s or C1r 0-200 nM; HBS-T Ca2+ (10 mM Hepes pH 7.3, 140 mM NaCl, 0.005% Tween-20, 5 mM CaCl2)
T1 construct: also called active C1s
T1 sequence 1: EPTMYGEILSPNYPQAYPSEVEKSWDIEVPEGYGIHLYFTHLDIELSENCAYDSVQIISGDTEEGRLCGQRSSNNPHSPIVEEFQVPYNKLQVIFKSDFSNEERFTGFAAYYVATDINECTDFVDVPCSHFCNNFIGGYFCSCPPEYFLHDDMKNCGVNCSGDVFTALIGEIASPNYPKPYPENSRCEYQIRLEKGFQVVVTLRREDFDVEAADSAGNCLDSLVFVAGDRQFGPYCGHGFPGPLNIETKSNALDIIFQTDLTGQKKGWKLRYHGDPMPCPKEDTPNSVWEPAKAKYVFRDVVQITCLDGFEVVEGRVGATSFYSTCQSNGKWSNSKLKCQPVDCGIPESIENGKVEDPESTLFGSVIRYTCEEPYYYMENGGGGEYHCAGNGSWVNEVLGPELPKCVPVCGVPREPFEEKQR
T1 sequence 2: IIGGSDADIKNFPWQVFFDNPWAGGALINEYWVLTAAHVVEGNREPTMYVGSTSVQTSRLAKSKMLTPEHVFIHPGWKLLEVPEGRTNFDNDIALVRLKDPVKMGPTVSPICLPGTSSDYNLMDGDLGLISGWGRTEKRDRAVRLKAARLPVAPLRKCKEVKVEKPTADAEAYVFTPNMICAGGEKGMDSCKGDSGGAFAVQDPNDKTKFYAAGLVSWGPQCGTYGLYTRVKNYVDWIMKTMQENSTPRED

[2] = biological target: T1, full-length activated human C1s; experiment: SPR; kinetic fit (K_(D, kin)), 1:1 Langmuir; ElpQ/ElpB proteins amine-coupled to a CMD200 chip; activated C1s or C1r injected 0-200 nM, multicycle; HBS-T Ca2+ (10 mM Hepes pH 7.3, 140 mM NaCl, 0.005% Tween-20, 5 mM CaCl2); 30 μl/min; association 120 s (C1r 480 s), dissociation 180 s
[3] = biological target: T2, activated full-length human C1r (human, UniProt P00736 18-705); experiment: SPR; steady-state fit (K_(D, ss)), 1:1 model, of the same injection series as a2; ElpQ proteins amine-coupled to a CMD200 chip; activated C1s or C1r 0-200 nM; HBS-T Ca2+ (10 mM Hepes pH 7.3, 140 mM NaCl, 0.005% Tween-20, 5 mM CaCl2)
T2 construct: as far as I recall it is cleaved at Arg463-Ile464 of P00736 and lacks the signal peptide (1-17); also called active C1r
T2 sequence: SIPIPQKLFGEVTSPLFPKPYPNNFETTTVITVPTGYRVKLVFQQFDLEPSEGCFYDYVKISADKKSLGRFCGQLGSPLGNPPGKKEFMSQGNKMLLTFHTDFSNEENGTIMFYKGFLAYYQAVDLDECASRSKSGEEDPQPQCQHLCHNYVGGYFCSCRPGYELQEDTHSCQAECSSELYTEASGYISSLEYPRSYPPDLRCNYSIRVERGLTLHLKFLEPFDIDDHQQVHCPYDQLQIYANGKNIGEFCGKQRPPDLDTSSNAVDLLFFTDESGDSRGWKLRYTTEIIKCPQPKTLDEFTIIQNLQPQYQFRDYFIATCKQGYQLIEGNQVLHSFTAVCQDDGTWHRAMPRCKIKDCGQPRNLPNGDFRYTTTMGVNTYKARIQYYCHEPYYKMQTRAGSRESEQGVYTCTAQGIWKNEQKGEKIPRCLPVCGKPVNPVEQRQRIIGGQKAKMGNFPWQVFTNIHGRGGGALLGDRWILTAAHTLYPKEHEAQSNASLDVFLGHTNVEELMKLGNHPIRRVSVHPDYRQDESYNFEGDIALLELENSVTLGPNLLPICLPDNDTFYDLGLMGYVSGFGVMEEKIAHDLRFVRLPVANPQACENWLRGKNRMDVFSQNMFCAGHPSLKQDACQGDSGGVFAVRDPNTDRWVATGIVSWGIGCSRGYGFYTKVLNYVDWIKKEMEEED

[4] = biological target: T2, activated full-length human C1r; experiment: SPR; kinetic fit (K_(D, kin)), 1:1 Langmuir; ElpQ/ElpB proteins amine-coupled to a CMD200 chip; activated C1s or C1r injected 0-200 nM, multicycle; HBS-T Ca2+ (10 mM Hepes pH 7.3, 140 mM NaCl, 0.005% Tween-20, 5 mM CaCl2); 30 μl/min; association 120 s (C1r 480 s), dissociation 180 s
[5] = biological target: T1, full-length activated human C1s; experiment: HDX-MS; ElpQ_(19-343) alone or with a 3-fold molar excess of full-length activated C1s, on ice ~20 min before analysis; exchange 0 s to 2 h at 20 °C in D2O buffer (25 mM phosphate pD 7.5, 0.1 M NaCl); triplicate

Binder | Kd [1] | Kd [2] | koff [2] | kon [2] | Kd [3] | Kd [4] | koff [4] | kon [4] | binding result [5]
B1 | ~665 nM | ~623 nM | 0.00746 s⁻¹ | 22500 M⁻¹ s⁻¹ | – | – | – | – | –
B2 | 55.6 nM | 20.8 nM | 0.00794 s⁻¹ | 425000 M⁻¹ s⁻¹ | 181 nM | 113 nM | 0.00277 s⁻¹ | 26400 M⁻¹ s⁻¹ | –
B3 | ~464 nM | 173 nM | 0.0103 s⁻¹ | 60100 M⁻¹ s⁻¹ | – | – | 0.493 s⁻¹ | 2440 M⁻¹ s⁻¹ | –
B4 | 39.3 nM | 14.5 nM | 0.00683 s⁻¹ | 477000 M⁻¹ s⁻¹ | 221 nM | 151 nM | 0.00316 s⁻¹ | 21700 M⁻¹ s⁻¹ | –
B5 | – | – | – | – | – | – | – | – | binds
